Assay results reported in paper PMC2661964, “Mammalian Kinesin-3 Motors Are Dimeric In Vivo and Move by Processive Motility upon Release of Autoinhibition” (PLoS Biology, 2009).

Target: the molecule itself
Test: cross-linking; lysates of transfected COS cells in borate buffer (50 mM NaBorate, 100 mM potassium acetate, 2 mM MgCl2, 1 mM EGTA, 1% Triton X-100, pH 8.57), 20 mM DMP for 30 min or untreated; SDS-PAGE, immunoblot

Row | Protein | stoichiometry N
1 | KIF1A(1–726)-mCit (domain or fragment, rat, UniProt F1M4A4 1-726, looked up, source: COS cells, transfected, in lysate; not shown: mCit (monomeric citrine), C-terminal, kept) MAGASVKVAVRVRPFNSREMSRDSKCIIQMSGSTTTIVNPKQPKETPKSFSFDYSYWSHTSPEDINYASQKQVYRDIGEEMLQHAFEGYNVCIFAYGQTGAGKSYTMMGKQEKDQQGIIPQLCEDLFSRINDTTNDNMSYSVEVSYMEIYCERVRDLLNPKNKGNLRVREHPLLGPYVEDLSKLAVTSYNDIQDLMDSGNKARTVAATNMNETSSRSHAVFNIIFTQKRHDAETNITTEKVSKISLVDLAGSERADSTGAKGTRLKEGANINKSLTTLGKVISALAEMDSGPNKNKKKKKTDFIPYRDSVLTWLLRENLGGNSRTAMVAALSPADINYDETLSTLRYADRAKQIRCNAIINEDPNNKLIRELKDEVTRLRDLLYAQGLGDITDTNTVPGGPKLTNALVGMSPSSSLSALSSRAASVSSLHERILFAPGSEEAIERLKETEKIIAELNETWEEKLRRTEAIRMEREALLAEMGVAMREDGGTLGVFSPKKTPHLVNLNEDPLMSECLLYYIKDGVTRVGREDAERRQDIVLSGHFIKEEHCIFRSDSRGGGEAVVTLEPCEGADTYVNGKKVTEPSILRSGNRIIMGKSHVFRFNHPEQARQERERTPCAETPAEPVDWAFAQRELLEKQGIDMKQEMEQRLQELEDQYRREREEATYLLEQQRLDYESKLEALQKQMDSRYYPEVNEEEEEPEDEVQWTERECELALWAFRKWKWY | 2
2 | KIF1A(1–393)-mCit (domain or fragment, rat, UniProt F1M4A4 1-393, looked up, full NC and several residues of the hinge; Plasmid was a gift from Gary Banker; source: COS cells, transfected, in lysate; not shown: mCit (monomeric citrine), C-terminal, kept) MAGASVKVAVRVRPFNSREMSRDSKCIIQMSGSTTTIVNPKQPKETPKSFSFDYSYWSHTSPEDINYASQKQVYRDIGEEMLQHAFEGYNVCIFAYGQTGAGKSYTMMGKQEKDQQGIIPQLCEDLFSRINDTTNDNMSYSVEVSYMEIYCERVRDLLNPKNKGNLRVREHPLLGPYVEDLSKLAVTSYNDIQDLMDSGNKARTVAATNMNETSSRSHAVFNIIFTQKRHDAETNITTEKVSKISLVDLAGSERADSTGAKGTRLKEGANINKSLTTLGKVISALAEMDSGPNKNKKKKKTDFIPYRDSVLTWLLRENLGGNSRTAMVAALSPADINYDETLSTLRYADRAKQIRCNAIINEDPNNKLIRELKDEVTRLRDLLYAQGLGDITD | 2
3 | Myc-KIF1A (natural protein, rat, UniProt F1M4A4 1-1707, looked up, KIF1A (Kinesin-3 motor), rat, full length; Cloned into pRK5-Myc; also called Myc-tagged KIF1A; FL KIF1A; source: COS cells, transfected, in lysate) MAGASVKVAVRVRPFNSREMSRDSKCIIQMSGSTTTIVNPKQPKETPKSFSFDYSYWSHTSPEDINYASQKQVYRDIGEEMLQHAFEGYNVCIFAYGQTGAGKSYTMMGKQEKDQQGIIPQLCEDLFSRINDTTNDNMSYSVEVSYMEIYCERVRDLLNPKNKGNLRVREHPLLGPYVEDLSKLAVTSYNDIQDLMDSGNKARTVAATNMNETSSRSHAVFNIIFTQKRHDAETNITTEKVSKISLVDLAGSERADSTGAKGTRLKEGANINKSLTTLGKVISALAEMDSGPNKNKKKKKTDFIPYRDSVLTWLLRENLGGNSRTAMVAALSPADINYDETLSTLRYADRAKQIRCNAIINEDPNNKLIRELKDEVTRLRDLLYAQGLGDITDTNTVPGGPKLTNALVGMSPSSSLSALSSRAASVSSLHERILFAPGSEEAIERLKETEKIIAELNETWEEKLRRTEAIRMEREALLAEMGVAMREDGGTLGVFSPKKTPHLVNLNEDPLMSECLLYYIKDGVTRVGREDAERRQDIVLSGHFIKEEHCIFRSDSRGGGEAVVTLEPCEGADTYVNGKKVTEPSILRSGNRIIMGKSHVFRFNHPEQARQERERTPCAETPAEPVDWAFAQRELLEKQGIDMKQEMEQRLQELEDQYRREREEATYLLEQQRLDYESKLEALQKQMDSRYYPEVNEEEEEPEDEVQWTERECELALWAFRKWKWYQFTSLRDLLWGNAIFLKEANAISVELKKKVQFQFVLLTDTLYSPLPPDLLPPEAAKDRETRPFPRTIVAVEVQDQKNGATHYWTLEKLRQRLDLMREMYDRAAEVPSSVVEDCDNVVTGGDPFYDRFPWFRLVGRAFVYLSNLLYPVPLVHRVAIVSEKGEVKGFLRVAVQAISADEEAPDYGSGVRQSGTAKISFDDQHFEKFQSESCPVVGMSRSGTSQEELRIVEGQGQGADAGPSADEVNNNTCSAVPPEGLLDSPEKAALDGPLDTALDHLRLGSTFTFRVTVLQASSISAEYADIFCQFNFIHRHDEAFSTEPLKNTGRGPPLGFYHVQNIAVEVTKSFIEYIKSQPIVFEVFGHYQQHPFPPLCKDVLSPLRPSRRHFPRVMPLSKPVPATKLSTMTRPSPGPCHCKYDLLVYFEICELEANGDYIPAVVDHRGGMPCMGTFLLHQGIQRRITVTLLHETGSHIRWKEVRELVVGRIRNTPETDEALIDPNILSLNILSSGYVHPAQDDRQFLDSDIPRTFYQFEAAWDSSMHNSLLLNRVTPYREKIYMTLSAYIEMENCTQPAVITKDFCMVFYSRDAKLPASRSIRNLFGSGSLRATEGNRVTGVYELSLCHVADAGSPGMQRRRRRVLDTSVAYVRGEENLAGWRPRSDSLILDHQWELEKLSLLQEVEKTRHYLLLREKLETTQRPVPEVLSPASSEDSESRSSSGASSPLSAEGQPSPLEVPNERQRELAVKCLRLLMHTFNREYTHSHVCISASESKLSEMSVTLMRDPSMSPLGAATLTPSSTCPSLIEGRYGATDVRTPQPCSRPASPEPELLPELDSKKTPSPVRATETEKEPQRLLVPDIQEIRVSPIVSKKGYLHFLEPHTAGWAKRFVVVRRPYAYMYNSDKDTVERFVLNLSTAQVEYSEDQQAMLKTPNTFAVCTEHRGILLQANSDKDMHDWLYAFNPLLAGTIRSKLSRRRSAQMRV | ~2
4 | mCit-KIF1A (natural protein, rat, UniProt F1M4A4 1-1707, looked up, KIF1A (Kinesin-3 motor), rat, full length; also called mCit-tagged KIF1A; FL KIF1A; source: COS cells, transfected; in lysate and in live cells; not shown: mCit (monomeric citrine), N-terminal, kept) MAGASVKVAVRVRPFNSREMSRDSKCIIQMSGSTTTIVNPKQPKETPKSFSFDYSYWSHTSPEDINYASQKQVYRDIGEEMLQHAFEGYNVCIFAYGQTGAGKSYTMMGKQEKDQQGIIPQLCEDLFSRINDTTNDNMSYSVEVSYMEIYCERVRDLLNPKNKGNLRVREHPLLGPYVEDLSKLAVTSYNDIQDLMDSGNKARTVAATNMNETSSRSHAVFNIIFTQKRHDAETNITTEKVSKISLVDLAGSERADSTGAKGTRLKEGANINKSLTTLGKVISALAEMDSGPNKNKKKKKTDFIPYRDSVLTWLLRENLGGNSRTAMVAALSPADINYDETLSTLRYADRAKQIRCNAIINEDPNNKLIRELKDEVTRLRDLLYAQGLGDITDTNTVPGGPKLTNALVGMSPSSSLSALSSRAASVSSLHERILFAPGSEEAIERLKETEKIIAELNETWEEKLRRTEAIRMEREALLAEMGVAMREDGGTLGVFSPKKTPHLVNLNEDPLMSECLLYYIKDGVTRVGREDAERRQDIVLSGHFIKEEHCIFRSDSRGGGEAVVTLEPCEGADTYVNGKKVTEPSILRSGNRIIMGKSHVFRFNHPEQARQERERTPCAETPAEPVDWAFAQRELLEKQGIDMKQEMEQRLQELEDQYRREREEATYLLEQQRLDYESKLEALQKQMDSRYYPEVNEEEEEPEDEVQWTERECELALWAFRKWKWYQFTSLRDLLWGNAIFLKEANAISVELKKKVQFQFVLLTDTLYSPLPPDLLPPEAAKDRETRPFPRTIVAVEVQDQKNGATHYWTLEKLRQRLDLMREMYDRAAEVPSSVVEDCDNVVTGGDPFYDRFPWFRLVGRAFVYLSNLLYPVPLVHRVAIVSEKGEVKGFLRVAVQAISADEEAPDYGSGVRQSGTAKISFDDQHFEKFQSESCPVVGMSRSGTSQEELRIVEGQGQGADAGPSADEVNNNTCSAVPPEGLLDSPEKAALDGPLDTALDHLRLGSTFTFRVTVLQASSISAEYADIFCQFNFIHRHDEAFSTEPLKNTGRGPPLGFYHVQNIAVEVTKSFIEYIKSQPIVFEVFGHYQQHPFPPLCKDVLSPLRPSRRHFPRVMPLSKPVPATKLSTMTRPSPGPCHCKYDLLVYFEICELEANGDYIPAVVDHRGGMPCMGTFLLHQGIQRRITVTLLHETGSHIRWKEVRELVVGRIRNTPETDEALIDPNILSLNILSSGYVHPAQDDRQFLDSDIPRTFYQFEAAWDSSMHNSLLLNRVTPYREKIYMTLSAYIEMENCTQPAVITKDFCMVFYSRDAKLPASRSIRNLFGSGSLRATEGNRVTGVYELSLCHVADAGSPGMQRRRRRVLDTSVAYVRGEENLAGWRPRSDSLILDHQWELEKLSLLQEVEKTRHYLLLREKLETTQRPVPEVLSPASSEDSESRSSSGASSPLSAEGQPSPLEVPNERQRELAVKCLRLLMHTFNREYTHSHVCISASESKLSEMSVTLMRDPSMSPLGAATLTPSSTCPSLIEGRYGATDVRTPQPCSRPASPEPELLPELDSKKTPSPVRATETEKEPQRLLVPDIQEIRVSPIVSKKGYLHFLEPHTAGWAKRFVVVRRPYAYMYNSDKDTVERFVLNLSTAQVEYSEDQQAMLKTPNTFAVCTEHRGILLQANSDKDMHDWLYAFNPLLAGTIRSKLSRRRSAQMRV | ~2
